Experimental findings from patent US20040038299A1 (Pfizer, published 2004) are described below.

This assay concerns the target T1, N-terminal FLAG-tagged full length LTβR (UniProt P36941 31-435).
T1 construct: whole, on cells; Overexpressed in HEK293 cells, immunoprecipitated from lysate with M2 beads; also called Flag-tagged LTβR; pFlag-CMV2-LTβR; not shown: N-terminal FLAG tag from pFLAG-CMV2
Put plainly: co-immunoprecipitation in transfected HEK293 cells, Western blot. Here is the method: For immunoprecipitation, 1×10⁸ U937 cells were treated with FLAG-LIGHT at 20 ng/ml for different time or left untreated. Cells were then harvested and lysed in 4 ml of lysis buffer (see above). Cell debris was removed by centrifugation at 14,000+ g for 10 min and resulting lysate was pre-cleared with Gamma Binding beads (Pharmacia Biotech) for 1 hour at 4° C. Then 20 µl of M2 beads were added to cell lysate and incubated at 4° C. for 3 hours. After binding, beads were washed five times with lysis buffer. Immune complexes bound to the beads were eluted with sample buffer, resolve on 4-12% SDS-PAGE gels, transferred to PVDF membrane and probed with TRAF2, TRAF3 or cIAP1 antibody. Signals were detected with HRP-conjugated secondary antibody and ECL detection kits (Amersham Pharmacia Biotech). […] The presence of Smac, LTβR, TRAF2 and cIAP1 in the immune complex were then analyzed by Western blots.
Although two peptides from Smac in the LIGHT-LTβR complex were detected by mass spectrometry, an endogenous association was not detected using Smac antibodies (Alexis Biochemicals or Cell Signaling Technology). […] Smac was expressed as a C-terminal HA-tagged fusion protein and appeared as a doublet of 28 kDa and 23 kDa on the Western blot. […]
For orientation: A western blot detects proteins with antibodies after separation by electrophoresis.

T1 sequence (P36941 31-435): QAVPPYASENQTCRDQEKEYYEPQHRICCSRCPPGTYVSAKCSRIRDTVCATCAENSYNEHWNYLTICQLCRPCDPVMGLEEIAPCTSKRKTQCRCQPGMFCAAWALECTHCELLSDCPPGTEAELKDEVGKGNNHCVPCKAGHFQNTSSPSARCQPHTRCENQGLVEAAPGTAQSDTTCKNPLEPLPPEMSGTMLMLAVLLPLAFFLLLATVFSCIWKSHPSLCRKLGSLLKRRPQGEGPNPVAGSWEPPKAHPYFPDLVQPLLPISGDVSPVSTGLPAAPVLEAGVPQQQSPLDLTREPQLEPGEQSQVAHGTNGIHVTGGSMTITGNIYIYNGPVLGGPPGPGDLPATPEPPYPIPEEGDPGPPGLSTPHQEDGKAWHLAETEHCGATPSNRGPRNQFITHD

B1: Δ76 deletion mutant of Smac with a C-terminal HA-tag (other)
chain: RAVSLVTDSTSTFLSQTTYALIEAITEYTKAVYTLTSLYRQYTSLLGKMNSEEEDEVWQVIIGARAEMTSKHQEYLKLETTWMTAVGLSEMAAEAAYQTGADQASITARNHIQLVKLQVEEVHQLSRKAETKLAEAQIEELRQKTQEEGEERAESEQEAYLRED
notes: also called ?76Smac; ?76 Smac; not shown: C-terminal HA tag
As for B1, the binding result is “no binding”.
